According to a protein production outcome set (Wang et al. 2014):

Assay: label from the status in PepcDB records

Sequence | protein production
MFLSVVTVAFRNYEGVVKTWRSLRNLARDPGLSFEWIVVDGGSEDGTREFLRKRHGEFNLRFISEKDRGIYDAMNKGIALAQGRYTLFLNSGDAFHDDAALFVRQLARQKGEAMYIGDALLDFGGGHKIRRKAKPGYYIYHSLPASHQAIFFPTAALKKYPYDLQYHVSSDYALAARLYKAGYPFRRINGLVSEFSMGGVSTSNNLELCQDAKNVQRKILRVPGFWAQLSYLLRLKTTGKTKARYNKVLEHHHHHH | not failed
YPLRKTQAVQSTQFDSRHSFVTKLKPYADKAARMLGVDSSLLIAQAALETGWGQKMVKNARGNSNNLFNIKADRSWQGDKVATQTLEYHNNVPVVEKAAFRSYASFDESFNDYVRFLENNPRYTNALDHGGNSERFIHGIHRAGYATDPQYADKVLRVKAQIDQMNL | failed
MDYTYTVMTQEEAEEIAYNWHYEGEYSFYDIEADEEDLAEFLHDESRGDHIFSVKEHGTLIGYFTVCKINDGTVDIGLGMKPNITGNGFGLQFINAILAFSKEKYGCKYITLSVATFNKRAIKVYKRAGFEAVGTFIQKTNGSCFEFLKMNYICKND | failed
MKTPTSRPVVLCLSGHDPSGGAGLQADIEALLAQGCHAAPAVTALTVQDTVNVSDFRVLDREWVLAQANAVLADLPVAAVKLGMLGSLEMVDTVAEILAAHPHLPVVCDPVLRAGGGGALGKGDVGFAMRERLLPRATIATPNLPEARLLADLPEGSADQCAERLLEHCEHLLITGGHGDESEVHNRLYSRDGSRRTFTCQRLPGSYHGSGCTLASALAGRIALGEALHGAVQSALDYTWRTLRDAESPGHGQYVPRRLPTDFCH | failed
MKNLYILIFACLAISAQGQQLLNSDFENWTNHPGSGGYSSYDEADNWASGNAAVNIAPGLTPPTTKTTDAQHGNAAVKLTTQSIFGQIAAGNLFTGKFQLNLSNPVKSVQMGIPYVSRPSAFNVYYKYAPVNGDSCAIYVLLTKYNTSTKKTDTIGRGHFSSTANVSVYTLLHIPVTYTSTAAPDSIAMVFTSSADGGNFRGQVGSSLTVDNFSLEFEELSIATSLAAVSAVLYPNPAQSRVALSNAPSESGTVYFYNVAGKLVSSQKWTGTVSPEFALDNMPAGFYTCKFITSDTAVFSGKLLITE | failed
MYQVAICDPIHAKGIQILEAQKDIVLHDYSKCPKKELLEKLTPMDALITRSMTPITSDFLKPLTHLKSIVRAGVGVDNIDLESCSQKGIVVMNIPTANTIAAVELTMAHLINAVRSFPCANDQIKHQRLWKREDWYGTELKNKKLGIIGFGNIGSRVGIRAKAFEMEVLAYDPYIPSSKATDLGVIYTKNFEDILQCDMITIHTPKNKETINMIGAKEIERMKKGVILLNCARGGLYNEDALYEALETKKVRWLGIDVFSKEPGIHNKLLDLPNVYATPHIGANTLESQEEISKQAAQGVMESLRGSSHPHALNLPMQAFDASAKAYLNLAQKLGYFSSQIHKGVCQKIELSLCGEINQFKDALVAFMLVGVLKPVVGDKINYINAPFVAKERGIEIKVSLKESASPYKNMLSLTLNAANGTISVSGTVFEEDILKLTEIDGFHIDIEPKGKMLLFRNTDIPGVIGSVGNAFARHGINIADFRLGRNTQKEALALIIVDEEVSLEVLEELKNIPACLSVHYVVI | failed
MPETMHDNALTQSCTLVTSPELGTMHAMPTYIATKNGEPTAIAIESIAPDGYNGEIKVITGIDNQGKILGTRVLSHQETPGLGDKIDLRVTSWILGFTGKQVTEDNWNSWKVRKDGGDFDQFTGATITPRAVIKAVRNTVNYVNQSRDEILSQPLEHHHHHH | not failed
MPSRRRFVLALAAALPAAGLLSACGFHLRGNNDFAFKRLYINLPQNSQMRAQLRRLIDNGSDTVVVSDKQDADAFLDVLSENRVKTISSLTPQGVVREYRITYRFSFQLRDAHDNLLIPPSEITLFRDLSYNETQVLAKDYEEAALYRDMQGDIVNQLVRRLASVRLPSLEHHHHHH | failed
MNLVETAQAIEAGQVSLGIELGSTRIKAVLVTDDFNTIASGSYVWENRFEDGVWTYPLEEVWSGIQQSYTQMAADVQSKYHASLKHINAIGVSAMMHGYLAFDKNNELLVPFRTWRNNITGQSADELTKLFDFNIPQRWSIAHLYQAVLNDEDHVAKVDFITTLAGYVTWKLSGEKVLGVGDASGVFPIDEKTGSYDQAMLDKFSSLDNVKRYPWQIENILPSILPAGKIAGKLTADGANLLDASGNLEAGSVMAPPEGDAGTGMVGTNSVRKRTGNISVGTSAFSMNVLDKPLSKVYRDIDIVMTPDGSPVAMVHVNNCSSDINAWASIFSEFAARLGVDLKPDRLYETLFLESTKADANAGGLVNYSYQSGENITKIQAGRPLFVRTPNSKFSLPNFMLTQLYAAFAPLQIGMDILVNEEHVQTDVMIAQGGLFRTPVIGQQVLANALNIPITVMSTAGEGGPWGMAVLAAYAQRQTGANLEDFLDQEVFTNPESMTLSPEPAGVAGYQEFIKNYQAGLPVEAAAGEAISD | failed
MVRDNGPGERLSIPPLSGLRKFRRTLSQKYDNHYCYLWMVSSALEYVRKFGIEKEPSRPFHAYAICPKDVPHRSPSIELSYISEVVWLNRIEDDLCYMNIRSLPVSPFSFSNIEKIGFQR | not failed
MKGNALCTGEPVMTIETRGGGSEDIAVLPLDPTGNITRLFIRERCNDSSDPECKTGQWRLGSVDISRENTPASTRYAWRPGNNASEDDFEPLGMSLVPGNTPGEGTLFVIDIARPQSVRIWQLDISGGEITKATLATPADTQTGARLTAANSLQAVRNDDSRSFHLTITRFDEYGLLPFRPTPWPALVRINNGVIQPPPAQDFRNANGIIRPCAGCDLVIASYWERRLRFVSKENGEIGEYASAELPIRPDNLRLDGERILIAGQRRVDLTALNLLVSPHIPSPSGVYAIDTRSLGPDTVPTLLWEGGWKHGHSVATAVALPGNRLAIGQINTPGILIADCSPLEHHHHHH | failed
ESLKAGSSWQCDTCLLQNKVTDNKCIACQAAKLSPRDTAKQTGIETPNKSGKTTLSASGTGFGDKFKPVIGTWDCDTCLVQNKPEAIKCVACETPKPGTCVKRALTLTVV | failed
MILVSLVVVLFLVLLNGVFSMSELAVVSARKARLQGFAERGDRGAKLALEMSEHPTRFLSAVQVGITLIGIFAGAYGQATIAAALDAWLEASVPALAKYSEAIATTLVVIGLTYVSVILGELVPKRLALIFPDAIARRMAPFLAVVATVLRPFVTLLTVSTAAVLRLMGVRDERNTSVTSEEVEAVLAEGADAGLIEPEERSMIQEVLRLGDRPVRVAMTPRRDLFWVSLADDTETVLKEIRASAHSRIVVATEGDLDGDVGVLLKKDLLDACLSGEPLDLKAHVQQPLAIPETMSLLKALQLFKSTSLHMALVVDEFGSLQGAITPLDLLEMIAGDFPEDHDDDEKRIIRREDGGWLIDARLDIQELNDHLGENFEADGGYHTVAGLILDRLGRLPTEGEHVEIGGFDLEIVDMDGSRIDKVILKPSKRRKEGQEG | failed
MLLTATLLGLIAALGILDGRLLGVSMIDRPLVMCALTGLVCGNLHEGILIGATLELIFLGNVAIGAAVPPDVVTGSVLATAFSIMSGRGPEAALTIAIPISMLAQTLGVLVRVVNARFGHMADRYAAQGNTRMVAVMHLGGPTLLYFLSGFLPVFFAILLGSAAVTWFLDAIPAFITNGLVVASKILPALGFALLISMMLSSKLMPYLGLGFLIAAYTKLDIIAIALFAVVLAFIISQFLNTSQQEG | failed
MHGHGGYDSDFSDDEHCGESSKRKKRTVEDDLLLQKPFQKEKHGKVAHKQVAAELLDREEARNRRFHLIAMDAYQRHRKFVNDYILYYGGKKEDFKRLGENDKTDLDVIRENHRFLWNEEDEMDMTWEKRLAKKYYDKLFKEYCIADLSKYKENKFGFRWRVEKEVISGKGQFFCGNKYCDKKEGLKSWEVNFGYIEHGEKRNALVKLRLCQECSIKLNFHHRRKEIKSKKRKDKTKKDCEESSHKKSRLSSAEEASKKKDKGHSSSKKSEDSLLRNSDEEESASESELWKGPLPETDEKSQEEEFDEYFQDLFL | not failed
MKKKKIWALIWRKSAFRWLLISIFTAIIISACSYNVSKDENGKVKTVKSHFTPCYVVKHKMGETCVPQNPQRIVVLAQTTLANVLALGVKPIGILGADLPTYLQQARDIQVVGEGWEPDVEKILLLKPDLILGKEYHRTQYNTLSQIAPTVLLEWNGTPSWKQHLEDVAQVLNKTDQAKSLMRNYHQRLEEFKIKMGDRLKNLQISYIDILVGYIWCDVKNSFAGTILADAGLQHPSAQEVVTKGGYITFGLETMPMDADGDVIFTSHWMDEDGAKALKRNQNNPLWRKLKAVEQNQVYVVNRHFWRGSNILAAHKVIDDLFNYLVDAKS | failed
